Results taken from patent US20260049138A1 (Chugai, published 2026).
Where a chain is given by its changes, count along the chain named. In names and notes the source's numbering stands.

B1: 154R3A01#4 one-arm antibody (antibody, human IgG1, kappa, L234A L235A, N297A)
heavy: QVQLVESGGGLVQPGRSLRLSCAASGFTFSNAWMHWVRQAPGKGLEWVAQIKDRVNQYANYYAECVKGRFTISRDDSKNSIYLQMNSLKTEDTAVYYCRYVHYGLTGYFSGQGGVDAWGQGTTVTVSSASTKGPSVFPLAPSSKSTSGGTAALGCLVKDYFPEPVTVSWNSGALTSGVHTFPAVLQSSGLYSLSSVVTVPSSSLGTQTYICNVNHKPSNTKVDKKVEPKSCDKTHTCPPCPAPEAAGGPSVFLFPPKPKDTLMISRTPEVTCVVVDVSHEDPEVKFNWYVDGVEVHNAKTKPREEQYASTYRVVSVLTVLHQDWLNGKEYKCKVSNKALPAPIEKTISKAKGQPREPQVYTLPPSRCELTKNQVSLSCAVKGFYPSDIAVEWESNGQPENNYKTTPPVLDSDGSFFLVSKLTVDKSRWQQGNVFSCSVMHEALHNHYTQKSLSLSPDYKDDDDK
chain: EPKSSDKTHTCPPCPAPELLGGPSVFLFPPKPKDTLMISRTPEVTCVVVDVSHEDPEVKFNWYVDGVEVHNAKTKPREEQYNSTYRVVSVLTVLHQDWLNGKEYKCKVSNKALPAPIEKTISKAKGQPREPQVCTLPPSRDELTKNQVSLWCLVKGFYPSDIAVEWESNGQPENNYKTTPPVLDSDGSFFLYSKLTVDKSRWQQGNVFSCSVMHEALHNRYTQKSLSLSP
light: DIVMTQSPLSLPVTPGEPASISCRSSQSLVHSNRNTYLHWYQQKPGQAPRLLIYKVSNRFSGVPDRFSGSGSGTDFTLKISRVEAEDVGVYYCGQGTQVPYTFGQGTKLEIKRTVAAPSVFIFPPSDEQLKSGTASVVCLLNNFYPREAKVQWKVDNALQSGNSQESVTEQDSKDSTYSLSSTLTLSKADYEKHKVYACEVTHQGLSSPVTKSFNRGEC
notes: As m48
B2: 154R3B01#1 one-arm antibody (antibody, human IgG1, kappa, L234A L235A, N297A)
heavy: QVQLVESGGGLVQPGRSLRLSCAASGFTFSSAWMHWVRQAPGKGLEWVAQIKDKQNQYNAYYAESVKGRFTISRDDSKNSIYLQMNSLKTEDTAVYYCRYVHYATSDGFLPYFGVDAWGQGTTVTVSSASTKGPSVFPLAPSSKSTSGGTAALGCLVKDYFPEPVTVSWNSGALTSGVHTFPAVLQSSGLYSLSSVVTVPSSSLGTQTYICNVNHKPSNTKVDKKVEPKSCDKTHTCPPCPAPEAAGGPSVFLFPPKPKDTLMISRTPEVTCVVVDVSHEDPEVKFNWYVDGVEVHNAKTKPREEQYASTYRVVSVLTVLHQDWLNGKEYKCKVSNKALPAPIEKTISKAKGQPREPQVYTLPPSRCELTKNQVSLSCAVKGFYPSDIAVEWESNGQPENNYKTTPPVLDSDGSFFLVSKLTVDKSRWQQGNVFSCSVMHEALHNHYTQKSLSLSPDYKDDDDK
chain: B1 chain
light: B1 light
notes: As m48
B3: 154R3F02#2 one-arm antibody (antibody, human IgG1, kappa, L234A L235A, N297A)
heavy: QVQLVESGGGLVQPGRSLRLSCAASGFTFSNAWMHWVRQAPGKGLEWVAQIKDRASGYNNYYAESVKGRFTISRDDSKNSIYLQMNSLKTEDTAVYYCRYVHYAQSVSAFFQYGVDAWGQGTTVTVSSASTKGPSVFPLAPSSKSTSGGTAALGCLVKDYFPEPVTVSWNSGALTSGVHTFPAVLQSSGLYSLSSVVTVPSSSLGTQTYICNVNHKPSNTKVDKKVEPKSCDKTHTCPPCPAPEAAGGPSVFLFPPKPKDTLMISRTPEVTCVVVDVSHEDPEVKFNWYVDGVEVHNAKTKPREEQYASTYRVVSVLTVLHQDWLNGKEYKCKVSNKALPAPIEKTISKAKGQPREPQVYTLPPSRCELTKNQVSLSCAVKGFYPSDIAVEWESNGQPENNYKTTPPVLDSDGSFFLVSKLTVDKSRWQQGNVFSCSVMHEALHNHYTQKSLSLSPDYKDDDDK
chain: B1 chain
light: B1 light
notes: As m48
B4: 154R4B03#1 one-arm antibody (antibody, human IgG1, kappa, L234A L235A, N297A)
heavy: QVQLVESGGGLVQPGRSLRLSCAASGFTFSNAWMHWVRQAPGKGLEWVAQIKDKQSQYANYYAPSVKGRFTISRDDSKNSIYLQMNSLKTEDTAVYYCRYVHYQSTSYSFYQGGVDAWGQGTTVTVSSASTKGPSVFPLAPSSKSTSGGTAALGCLVKDYFPEPVTVSWNSGALTSGVHTFPAVLQSSGLYSLSSVVTVPSSSLGTQTYICNVNHKPSNTKVDKKVEPKSCDKTHTCPPCPAPEAAGGPSVFLFPPKPKDTLMISRTPEVTCVVVDVSHEDPEVKFNWYVDGVEVHNAKTKPREEQYASTYRVVSVLTVLHQDWLNGKEYKCKVSNKALPAPIEKTISKAKGQPREPQVYTLPPSRCELTKNQVSLSCAVKGFYPSDIAVEWESNGQPENNYKTTPPVLDSDGSFFLVSKLTVDKSRWQQGNVFSCSVMHEALHNHYTQKSLSLSPDYKDDDDK
chain: B1 chain
light: B1 light
notes: As m48
B5: 154R4B03#4 one-arm antibody (antibody, human IgG1, kappa, L234A L235A, N297A)
heavy: B4 heavy with N79S
chain: B1 chain
light: B1 light
notes: As m48
B6: CE115HA000 A52aE one-arm antibody (antibody, human IgG1, kappa, L234A L235A, N297A, name in Kabat numbering)
heavy: QVQLVESGGGVVQPGRSLRLSCAASGFTFSNAWMHWVRQAPGKGLEWVAQIKEKSNNYATYYAESVKGRFTISRDDSKNSLYLQMNSLKTEDTAVYYCRYVHYGAYYGVDAWGQGTTVTVSSASTKGPSVFPLAPSSKSTSGGTAALGCLVKDYFPEPVTVSWNSGALTSGVHTFPAVLQSSGLYSLSSVVTVPSSSLGTQTYICNVNHKPSNTKVDKKVEPKSCDKTHTCPPCPAPEAAGGPSVFLFPPKPKDTLMISRTPEVTCVVVDVSHEDPEVKFNWYVDGVEVHNAKTKPREEQYASTYRVVSVLTVLHQDWLNGKEYKCKVSNKALPAPIEKTISKAKGQPREPQVYTLPPSRCELTKNQVSLSCAVKGFYPSDIAVEWESNGQPENNYKTTPPVLDSDGSFFLVSKLTVDKSRWQQGNVFSCSVMHEALHNHYTQKSLSLSPDYKDDDDK
chain: B1 chain
light: B1 light
B7: CE115HA000 D101K one-arm antibody (antibody, human IgG1, kappa, L234A L235A, N297A, name in Kabat numbering)
heavy: B6 heavy with E53A, D110K
chain: B1 chain
light: B1 light
B8: CE115HA000 D101R one-arm antibody (antibody, human IgG1, kappa, L234A L235A, N297A, name in Kabat numbering)
heavy: B6 heavy with E53A, D110R
chain: B1 chain
light: B1 light
B9: CE115HA000 G98K one-arm antibody (antibody, human IgG1, kappa, L234A L235A, N297A, name in Kabat numbering)
heavy: B6 heavy with E53A, G104K
chain: B1 chain
light: B1 light
B10: CE115HA000 K52E one-arm antibody (antibody, human IgG1, kappa, L234A L235A, N297A, name in Kabat numbering)
heavy: B6 heavy with K52E, E53A
chain: B1 chain
light: B1 light
B11: CE115HA000 Q50A one-arm antibody (antibody, human IgG1, kappa, L234A L235A, N297A, name in Kabat numbering)
heavy: B6 heavy with Q50A, E53A
chain: B1 chain
light: B1 light
B12: CE115HA000 S52cK one-arm antibody (antibody, human IgG1, kappa, L234A L235A, N297A, name in Kabat numbering)
heavy: B6 heavy with E53A, S55K
chain: B1 chain
light: B1 light
B13: CE115HA000 W33L one-arm antibody (antibody, human IgG1, kappa, L234A L235A, N297A, name in Kabat numbering)
heavy: B6 heavy with W33L, E53A
chain: B1 chain
light: B1 light

Experiments:
human CD154 = target: T1, human CD154 (human, UniProt P29965 113-261, limits assumed, biotin-labeled); experiment: ECL competition, CD3ε[+]: CD3ε homodimer added as competitor [1]
T1 construct: also called biotin-labeled human CD154; biotinylated human CD154
T1 sequence (looked up): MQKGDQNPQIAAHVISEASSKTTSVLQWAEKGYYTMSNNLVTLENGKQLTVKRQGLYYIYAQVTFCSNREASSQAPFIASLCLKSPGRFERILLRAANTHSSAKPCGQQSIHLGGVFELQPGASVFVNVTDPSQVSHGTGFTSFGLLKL
Protocol: Next, each obtained IgG was evaluated for its binding to CD3 and human CD154 at the same time by the competition method (electrochemiluminescence method (ECL method)).
A TBST solution containing 0.5% BSA (referred to as a blocking solution; the TBST solution was TBS (manufactured by Takara Bio Inc.) supplemented with 0.1% Tween 20) was added at 150 μL/well to streptavidin plate (MSD K.K.), and the plate was incubated at room temperature for 1 hour or longer. After removal of the blocking solution, each well was washed three times with 250 μL of a TBST solution. The antibody-antigen complex solution was added thereto at 50 μL/well, and the plate was incubated at room temperature for 1 hour so that the biotinylated antigen-antibody-detection sulfo-tag antibody complex solution bound via the biotinylated antigen to the streptavidin plate. After removal of the antibody-antigen complex solution, each well was washed three times with a TBST solution, and a solution of 4×READ buffer (MSD K.K.) diluted 2-fold with water was added thereto at 150 μL/well, followed by the detection of the luminescence signal of the sulfo-tag using Sector Imager 2400 (MSD K.K.).

CD3ε homodimer protein = CD3ε homodimer protein (human, UniProt P07766 23-126, limits assumed); experiment: SPR Biacore T200, CD3e homodimer on chip
Chain of CD3ε homodimer protein (P07766 23-126 limits assumed): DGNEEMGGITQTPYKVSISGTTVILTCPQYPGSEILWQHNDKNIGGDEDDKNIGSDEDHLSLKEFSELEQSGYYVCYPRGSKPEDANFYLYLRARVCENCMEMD
Protocol: An appropriate amount of CD3ε homodimer protein was immobilized onto Sensor chip CM4 (GE Healthcare Japan Corp.) by the amine coupling method. Then, the antibody having an appropriate concentration was injected thereto as an analyte and allowed to interact with the CD3ε homodimer protein on the sensor chip. Then, the sensor chip was regenerated by the injection of 10 mmol/L glycine-HCl (pH 1.5). The assay was conducted at 25° C., and HBS-EP+ (GE Healthcare Japan Corp.) was used as a running buffer. […] Each parameter was calculated using Biacore T200 Evaluation Software (GE Healthcare Japan Corp.).

Binder	relative ECL reaction (to no antigen coating) (human CD154)	KD ratio (KD of CE115HA000/KD of altered form) (CD3ε homodimer protein)
B1	4	–
B2	18	–
B3	16	–
B4	18	–
B5	20	–
B6	–	0.88
B7	–	4.32
B8	–	5.55
B9	–	1.85
B10	–	18.4
B11	–	22.8
B12	–	0.88
B13	–	56600
